Measured values taken from US20240132578A1.

How the values were obtained:
Assay in all cases: cell-based or functional assay
[1] = target: HIV-1 Env of pseudovirus CAP45 (HIV-1)
[2] = target: HIV-1 Env of pseudovirus TR0.11 (HIV-1)
[3] = target: HIV-1 92RW020 envelope glycoprotein (Env), on pseudovirus (HIV-1 isolate 92RW020 (clade A))
[4] = target: HIV-1 Env of pseudovirus PVO.4 (HIV-1)
[5] = target: HIV-1 Env of pseudovirus ZM214 (HIV-1)
[6] = target: HIV-1 Env of pseudovirus AC10 (HIV-1)
[7] = target: HIV-1 Env of pseudovirus ZM249 (HIV-1)
[8] = target: HIV-1 JR-FL Env E168K, on pseudovirus (HIV-1 isolate JR-FL (clade B))
[9] = target: HIV-1 Env of pseudovirus REJ04541 (HIV-1)
[10] = target: HIV-1 Env of pseudovirus CAAN (HIV-1)
[11] = target: HIV-1 ADA envelope glycoprotein (Env), on pseudovirus (HIV-1 isolate ADA)
[12] = target: HIV-1 Env of pseudovirus DU422 (HIV-1)
[13] = target: HIV-1 Env of pseudovirus Du172 (HIV-1)
[14] = target: HIV-1 Env of pseudovirus ZM233 (HIV-1)
[15] = target: HIV-1 Env of pseudovirus THRO.18 (HIV-1)
[16] = target: Envelope protein of control pseudovirus MuLV (MuLV)
[17] = target: HIV-1 Env of pseudovirus DU156 (HIV-1)
[18] = target: HIV-1 Env of isolate 6535.3 (subtype B) (HIV-1)
[19] = target: HIV-1 Env of isolate APV 13 (subtype B) (HIV-1)
[20] = target: HIV-1 Env of isolate MGRM-G-009 (subtype G), on pseudovirus (HIV-1)
[21] = target: HIV-1 Env of isolate APV 6 (subtype B) (HIV-1)
[22] = target: HIV-1 Env of isolate MGRM-G-013 (subtype G), on pseudovirus (HIV-1)
[23] = target: HIV-1 Env of isolate MGRM-G-017 (subtype G), on pseudovirus (HIV-1)
[24] = target: HIV-1 Env of isolate APV_17 (subtype B) (HIV-1)
[25] = target: HIV-1 Env of isolate MGRM-G-001 (subtype G), on pseudovirus (HIV-1)
[26] = target: HIV-1 Env of isolate MGRM-G-006 (subtype G), on pseudovirus (HIV-1)
[27] = target: HIV-1 Env of isolate MGRM-G-025 (subtype G), on pseudovirus (HIV-1)
[28] = target: HIV-1 Env of isolate MGRM-G-027 (subtype G), on pseudovirus (HIV-1)
[29] = target: HIV-1 Env of isolate MGRM-G-019 (subtype G), on pseudovirus (HIV-1)
[30] = target: HIV-1 Env of isolate 93TH305 (subtype B) (HIV-1)
[31] = target: aMLV envelope, on pseudovirus (negative control)
[32] = target: HIV-1 Env of isolate MGRM-G-004 (subtype G), on pseudovirus (HIV-1)
[33] = target: HIV-1 Env of isolate MGRM-G-014 (subtype G), on pseudovirus (HIV-1)
[34] = target: HIV-1 Env of isolate MGRM-G-024 (subtype G), on pseudovirus (HIV-1)
[35] = target: HIV-1 Env of isolate MGRM-G-016 (subtype G), on pseudovirus (HIV-1)
[36] = target: HIV-1 Env of isolate MGRM-G-015 (subtype G), on pseudovirus (HIV-1)
[37] = target: HIV-1 Env of isolate 92BR020 (subtype B) (HIV-1)
[38] = target: HIV-1 Env of isolate MGRM-G-028 (subtype G), on pseudovirus (HIV-1)
[39] = target: HIV-1 Env of isolate MGRM-G-011 (subtype G), on pseudovirus (HIV-1)

B1: 1456_A12 (PG16) (TCN-117) (antibody, V domains shown)
VH: HEQLVEAGGGVVQPGGSLRLSCLASGFTFHKYGMHWVRQAPGKGLEWVALISDDGMRKYHSDSMWGRVTISRDNSKNTLYLQFSSLRVEDTAMFFCAREAGGPIWHDDVKYYDFNDGYYNYHYMDVWGKGTKVTVSS
VL: QSALTQPASVSGSPGQTITISCNGTSRDVGGFDSVSWYQQSPGKAPKVMVFDVSHRPSGMSNRFSGSKSGNTASLTISGLHIEDEGDYFCSSLTDRSHRIFGGGTKLTVLG
[1]
  IC50, pseudovirus neutralization (TZM-bl assay): < 0.01 µg/mL
[2]
  IC50, pseudovirus neutralization (TZM-bl assay): 3.05 µg/mL
[3]
  IC50 (ug/ml), pseudovirus neutralization, TZM-bl assay: 0.05 µg/mL
[4]
  IC50, pseudovirus neutralization (TZM-bl assay): 10.4 µg/mL
[5]
  IC50, pseudovirus neutralization (TZM-bl assay): > 25 µg/mL
[6]
  IC50, pseudovirus neutralization (TZM-bl assay): < 0.01 µg/mL
[7]
  IC50, pseudovirus neutralization (TZM-bl assay): < 0.01 µg/mL
[8]
  IC50 (ug/ml), pseudovirus neutralization, TZM-bl assay: 0.003 µg/mL
[9]
  IC50, pseudovirus neutralization (TZM-bl assay): < 0.01 µg/mL
[10]
  IC50, pseudovirus neutralization (TZM-bl assay): 10.6 µg/mL
[11]
  IC50 (ug/ml), pseudovirus neutralization, TZM-bl assay: 0.005 µg/mL
[12]
  IC50, pseudovirus neutralization (TZM-bl assay): 0.36 µg/mL
[13]
  IC50, pseudovirus neutralization (TZM-bl assay): < 0.01 µg/mL
[14]
  IC50, pseudovirus neutralization (TZM-bl assay): < 0.01 µg/mL
[15]
  IC50, pseudovirus neutralization (TZM-bl assay): 2.08 µg/mL
[16]
  IC50, pseudovirus neutralization (TZM-bl assay), control virus: > 25 µg/mL
[17]
  IC50, pseudovirus neutralization (TZM-bl assay): < 0.01 µg/mL

B2: 1469_M23 (PG16) (TCN-118) (antibody, V domains shown)
VH: QEKLVESGGGVVQPGGSLRLSCLASGFTFHKYGMHWVRQAPGKGLEWVALISDDGMRKYHSDSMWGRVTISRDNSKNTLYLQFSSLKVEDTAMFFCAREAGGPIWHDDVKYYDFNDGYYNYHYMDVWGKGTTVTVSS
VL: QSALTQPASVSGSPGQTITISCNGTRSDVGGFDSVSWYQQSPGRAPKVMVFDVSHRPSGISNRFSGSKSGNTASLTISGLHIEDEGDYFCSSLTDRSHRIFGGGTKLTVLG
[1]
  IC50, pseudovirus neutralization (TZM-bl assay): < 0.01 µg/mL
[2]
  IC50, pseudovirus neutralization (TZM-bl assay): 7.52 µg/mL
[3]
  IC50 (ug/ml), pseudovirus neutralization, TZM-bl assay: 0.05 µg/mL
[4]
  IC50, pseudovirus neutralization (TZM-bl assay): 21.2 µg/mL
[5]
  IC50, pseudovirus neutralization (TZM-bl assay): > 25 µg/mL
[6]
  IC50, pseudovirus neutralization (TZM-bl assay): < 0.01 µg/mL
[7]
  IC50, pseudovirus neutralization (TZM-bl assay): < 0.01 µg/mL
[8]
  IC50 (ug/ml), pseudovirus neutralization, TZM-bl assay: 0.005 µg/mL
[9]
  IC50, pseudovirus neutralization (TZM-bl assay): 0.39 µg/mL
[10]
  IC50, pseudovirus neutralization (TZM-bl assay): 17.7 µg/mL
[11]
  IC50 (ug/ml), pseudovirus neutralization, TZM-bl assay: 0.005 µg/mL
[12]
  IC50, pseudovirus neutralization (TZM-bl assay): 0.97 µg/mL
[13]
  IC50, pseudovirus neutralization (TZM-bl assay): < 0.01 µg/mL
[14]
  IC50, pseudovirus neutralization (TZM-bl assay): < 0.01 µg/mL
[15]
  IC50, pseudovirus neutralization (TZM-bl assay): 7.01 µg/mL
[16]
  IC50, pseudovirus neutralization (TZM-bl assay), control virus: > 25 µg/mL
[17]
  IC50, pseudovirus neutralization (TZM-bl assay): < 0.01 µg/mL

B3: PGT-137 (antibody, V domains shown)
VH: EVHLEESGPGLVRPSETLSLTCTASGGSIRGGEWGDSDYHWGWVRHSPEKGLEWIGSIHWRGTTHYNAPFRGRGRLSIDLSRNQFSLRLTSVTAEDTAVYYCVKHKYHDIVMVVPIAGWFDPWGQGLQVTVSS
VL: EIMMTQSPAILSVSPGDRATLSCRASQSVKNNLAWYQKRPGQAPRLLIFDTSSRASGIPARFSGGGSGTEFTLTVNSMQSEDFATYYCQQYEEWPRTFGQGTKVEIK
[18]
  IC50 (µg/mL), pseudovirus neutralization: > 50 µg/mL
[19]
  IC50 (µg/mL), pseudovirus neutralization: > 50 µg/mL
[20]
  IC50 (µg/mL), neutralization of pseudovirus: > 50 µg/mL
[21]
  IC50 (µg/mL), pseudovirus neutralization: > 50 µg/mL
[22]
  IC50 (µg/mL), neutralization of pseudovirus: > 50 µg/mL
[23]
  IC50 (µg/mL), neutralization of pseudovirus: 34.9 µg/mL
[24]
  IC50 (µg/mL), pseudovirus neutralization: > 50 µg/mL
[25]
  IC50 (µg/mL), neutralization of pseudovirus: 41.7 µg/mL
[26]
  IC50 (µg/mL), neutralization of pseudovirus: > 50 µg/mL
[27]
  IC50 (µg/mL), neutralization of pseudovirus: > 50 µg/mL
[28]
  IC50 (µg/mL), neutralization of pseudovirus: 0.228 µg/mL
[29]
  IC50 (µg/mL), neutralization of pseudovirus: 0.126 µg/mL
[30]
  IC50 (µg/mL), pseudovirus neutralization: > 50 µg/mL
[31]
  IC50 (µg/mL), neutralization of pseudovirus: > 50 µg/mL
[32]
  IC50 (µg/mL), neutralization of pseudovirus: > 50 µg/mL
[33]
  IC50 (µg/mL), neutralization of pseudovirus: > 50 µg/mL
[34]
  IC50 (µg/mL), neutralization of pseudovirus: 0.051 µg/mL
[35]
  IC50 (µg/mL), neutralization of pseudovirus: > 50 µg/mL
[36]
  IC50 (µg/mL), neutralization of pseudovirus: > 50 µg/mL
[37]
  IC50 (µg/mL), pseudovirus neutralization: 7.81 µg/mL
[38]
  IC50 (µg/mL), neutralization of pseudovirus: > 50 µg/mL
[39]
  IC50 (µg/mL), neutralization of pseudovirus: > 50 µg/mL
